Test results from patent publication US20240018502A1.
Substitutions are numbered along the chain they refer to. Numbers in names are those of the source.

B1: MTSP-1 Q38H/I41S/D60bT/F60eS/Y60gW/ins97aV/F97D/T98P/F99L/C122S/G151N/Q175L/Q192E (enzyme)
chain: VVGGTDADEGEWPWQVSLHALGHGHSCGASLISPNWLVSAAHCYIDTRGSRWSDPTQWTAFLGLHDQSQRSAPGVQERRLKRIISHPFFNDDVPLDYDIALLELEKPAEYSSMVRPISLPDASHVFPAGKAIWVTGWGHTQYGGTNALILQKGEIRVINQTTCENLLPQLITPRMMCVGFLSGGVDSCEGDSGGPLSSVEADGRIFQAGVVSWGDGCAQRNKPGVYTRLPLFRDWIKENTGV
B2: MTSP-1 ins97aL/F97Q/T98G/F99L/C122S/Q175M/Q192S/D217I (enzyme)
chain: VVGGTDADEGEWPWQVSLHALGQGHICGASLISPNWLVSAAHCYIDDRGFRYSDPTQWTAFLGLHDQSQRSAPGVQERRLKRIISHPFFNDQLGLDYDIALLELEKPAEYSSMVRPISLPDASHVFPAGKAIWVTGWGHTQYGGTGALILQKGEIRVINQTTCENLLPQMITPRMMCVGFLSGGVDSCSGDSGGPLSSVEADGRIFQAGVVSWGIGCAQRNKPGVYTRLPLFRDWIKENTGV
B3: MTSP-1 Q38H/I41A/D60bV/F60eR/Y60gW/ins97aE/F97T/T98G/F99L/C122S/G151H/Q175L/Q192D (enzyme)
chain: B1 chain with S26A, T47V, S50R, D92T, V93E, P94G, N146H, E189D
B4: MTSP-1 Q38H/I41S/D60bT/F60eS/Y60gW/ins97aV/F97D/T98P/F99L/C122S/G151N/Q175A/Q192D (enzyme)
chain: B1 chain with L170A, E189D
B5: MTSP-1 Q38R/I41T/D60bH/ins97aE/F97T/T98G/F99L/C122S/Q175L/Q192G (enzyme)
chain: B2 chain with Q23R, I26T, D47H, Q92T, L93E, M170L, S189G, I215D
B6: MTSP-1 Q38H/I41A/F60eH/Y60gW/ins97aE/F97T/T98G/F99L/C122S/Q175L/Q192A (enzyme)
chain: B1 chain with S26A, T47D, S50H, D92T, V93E, P94G, N146G, E189A
B7: MTSP-1 Q38H/H40P/I41A/F60eQ/Y60gW/F97T/ins97aE/T98G/F99L/C122S/Q175L/Q192D (enzyme)
chain: B1 chain with H25P, S26A, T47D, S50Q, D92T, V93E, P94G, N146G, E189D
B8: MTSP-1 Q38H/I41A/D60bE/F60eH/Y60gW/ins97aE/F97T/T98G/F99L/C122S/G151H/Q175L/Q192D (enzyme)
chain: B1 chain with S26A, T47E, S50H, D92T, V93E, P94G, N146H, E189D
B9: MTSP-1 Q38H/I41S/L52M/D60bG/ins97aV/F97D/T98P/F99L/M117K/C122S/I136L/Q192G/D217A (enzyme)
chain: B1 chain with L37M, T47G, S50F, W52Y, M113K, I132L, N146G, L170Q, E189G, D215A
B10: MTSP-1 Q38K/I41S/D60bV/ins97aV/F97D/T98P/F99L/M117T/C122S/Q145E/Q175L/Q192G (enzyme)
chain: B1 chain with H23K, T47V, S50F, W52Y, M113T, Q141E, N146G, E189G
B11: MTSP-1 I41S/D60bT/F93L/ins97aV/F97D/T98P/F99L/C122S/Q192G/D217H (enzyme)
chain: B1 chain with H23Q, S50F, W52Y, F88L, N146G, L170Q, E189G, D215H
B12: MTSP-1 Q38H/I41S/L52M/D60bH/D96V/ins97aV/F97D/T98P/F99L/C122S/T150A/Q192G/Q209L/D217T (enzyme)
chain: VVGGTDADEGEWPWQVSLHALGHGHSCGASLISPNWMVSAAHCYIDHRGFRYSDPTQWTAFLGLHDQSQRSAPGVQERRLKRIISHPFFNVDVPLDYDIALLELEKPAEYSSMVRPISLPDASHVFPAGKAIWVTGWGHTQYGGAGALILQKGEIRVINQTTCENLLPQQITPRMMCVGFLSGGVDSCGGDSGGPLSSVEADGRIFLAGVVSWGTGCAQRNKPGVYTRLPLFRDWIKENTGV
B13: MTSP-1 Q38H/I41T/D60bH/ins97aV/F97D/T98P/F99L/C122S/I136F/L153P/Q192G/D217Y (enzyme)
chain: B12 chain with S26T, M37L, V91D, I132F, A145T, L148P, L207Q, T215Y
B14: MTSP-1 Q38H/I41S/P49Q/D60bS/F93L/ins97aV/F97D/T98P/F99L/C122S/Q192G/D217Q (enzyme)
chain: B12 chain with P34Q, M37L, H47S, F88L, V91D, A145T, L207Q, T215Q
B15: MTSP-1 Q38H/I41S/D60bS/ins97aV/F97D/T98P/F99L/C122S/I136V/Q192G/D217V (enzyme)
chain: B12 chain with M37L, H47S, V91D, I132V, A145T, L207Q, T215V
B16: MTSP-1 I41S/D60bS/D96V/ins97aV/F97D/T98P/F99L/C122S/Q192G/F208L/D217N (enzyme)
chain: B12 chain with H23Q, M37L, H47S, A145T, F206L, L207Q, T215N
B17: MTSP-1 Q38R/I41T/D60bT/ins97aV/F97D/T98P/F99L/C122S/I136V/Q192G/D217N/L233Q (enzyme)
chain: B1 chain with H23R, S26T, S50F, W52Y, I132V, N146G, L170Q, E189G, D215N, L231Q
B18: MTSP-1 Q38H/I41S/D60bT/F93L/ins97aV/F97D/T98P/F99L/S115N/C122S/Q192V/F208L/D217Q (enzyme)
chain: B1 chain with S50F, W52Y, F88L, S111N, N146G, L170Q, E189V, F206L, D215Q
B19: MTSP-1 Q38H/I41S/D60bG/ins97aV/F97D/T98P/F99L/M117T/C122S/N164D/Q192G/D217E (enzyme)
chain: B12 chain with M37L, H47G, V91D, M113T, A145T, N159D, L207Q, T215E
B20: MTSP-1 Q38H/I41A/D60bW/ins97aV/F97D/T98P/F99L/C122S/I136M/Q192G/D217N (enzyme)
chain: B12 chain with S26A, M37L, H47W, V91D, I132M, A145T, L207Q, T215N
B21: MTSP-1 Q38H/I41S/D60bT/ins97aV/F97D/T98P/F99L/C122S/I136V/Q192G/D217S (enzyme)
chain: B1 chain with S50F, W52Y, I132V, N146G, L170Q, E189G, D215S
B22: MTSP-1 Q38K/I41T/D60bY/ins97aV/F97D/T98P/F99L/C122S/I136T/Q192G/F208V/D217R (enzyme)
chain: B12 chain with H23K, S26T, M37L, H47Y, V91D, I132T, A145T, F206V, L207Q, T215R
B23: MTSP-1 Q38H/I41S/D60bS/F93L/D96Y/ins97aV/F97D/T98P/F99L/C122S/I136F/Q192G/D217V (enzyme)
chain: B12 chain with M37L, H47S, F88L, V91Y, I132F, A145T, L207Q, T215V
B24: MTSP-1 Q38E/I41A/D60bH/ins97aV/F97D/T98P/F99L/C122S/Q192G/Q209L/D217H (enzyme)
chain: B12 chain with H23E, S26A, M37L, V91D, A145T, T215H
B25: MTSP-1 Q38H/I41S/D60bS/ins97aV/F97D/T98P/F99L/M117L/C122S/I136T/Q192G/D217I (enzyme)
chain: B12 chain with M37L, H47S, V91D, M113L, I132T, A145T, L207Q, T215I

Each binder was assayed against plasma purified human complement protein C3 (human) (UniProt P01024) (assay: cell-based or functional assay).
plasma purified human complement protein C3 (human), sequence (P01024 23-667, chain 1 of 2): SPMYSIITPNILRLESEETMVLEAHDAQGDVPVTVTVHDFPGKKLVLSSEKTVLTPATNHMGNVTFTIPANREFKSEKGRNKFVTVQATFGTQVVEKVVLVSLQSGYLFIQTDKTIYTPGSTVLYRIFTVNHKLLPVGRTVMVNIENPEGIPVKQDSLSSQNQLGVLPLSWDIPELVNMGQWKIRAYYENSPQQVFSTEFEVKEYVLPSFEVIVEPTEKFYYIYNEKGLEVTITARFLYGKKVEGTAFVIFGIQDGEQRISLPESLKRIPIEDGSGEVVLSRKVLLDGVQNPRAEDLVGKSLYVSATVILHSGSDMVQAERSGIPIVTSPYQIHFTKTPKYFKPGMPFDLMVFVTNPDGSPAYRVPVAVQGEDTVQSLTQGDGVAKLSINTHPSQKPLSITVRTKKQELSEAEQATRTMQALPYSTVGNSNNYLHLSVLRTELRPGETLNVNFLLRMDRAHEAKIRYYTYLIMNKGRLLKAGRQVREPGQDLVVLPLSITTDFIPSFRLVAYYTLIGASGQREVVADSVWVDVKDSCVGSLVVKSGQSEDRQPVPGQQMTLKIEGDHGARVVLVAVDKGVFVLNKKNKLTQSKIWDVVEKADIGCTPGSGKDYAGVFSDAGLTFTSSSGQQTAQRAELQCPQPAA
plasma purified human complement protein C3 (human), sequence (P01024 672-1663, chain 2 of 2): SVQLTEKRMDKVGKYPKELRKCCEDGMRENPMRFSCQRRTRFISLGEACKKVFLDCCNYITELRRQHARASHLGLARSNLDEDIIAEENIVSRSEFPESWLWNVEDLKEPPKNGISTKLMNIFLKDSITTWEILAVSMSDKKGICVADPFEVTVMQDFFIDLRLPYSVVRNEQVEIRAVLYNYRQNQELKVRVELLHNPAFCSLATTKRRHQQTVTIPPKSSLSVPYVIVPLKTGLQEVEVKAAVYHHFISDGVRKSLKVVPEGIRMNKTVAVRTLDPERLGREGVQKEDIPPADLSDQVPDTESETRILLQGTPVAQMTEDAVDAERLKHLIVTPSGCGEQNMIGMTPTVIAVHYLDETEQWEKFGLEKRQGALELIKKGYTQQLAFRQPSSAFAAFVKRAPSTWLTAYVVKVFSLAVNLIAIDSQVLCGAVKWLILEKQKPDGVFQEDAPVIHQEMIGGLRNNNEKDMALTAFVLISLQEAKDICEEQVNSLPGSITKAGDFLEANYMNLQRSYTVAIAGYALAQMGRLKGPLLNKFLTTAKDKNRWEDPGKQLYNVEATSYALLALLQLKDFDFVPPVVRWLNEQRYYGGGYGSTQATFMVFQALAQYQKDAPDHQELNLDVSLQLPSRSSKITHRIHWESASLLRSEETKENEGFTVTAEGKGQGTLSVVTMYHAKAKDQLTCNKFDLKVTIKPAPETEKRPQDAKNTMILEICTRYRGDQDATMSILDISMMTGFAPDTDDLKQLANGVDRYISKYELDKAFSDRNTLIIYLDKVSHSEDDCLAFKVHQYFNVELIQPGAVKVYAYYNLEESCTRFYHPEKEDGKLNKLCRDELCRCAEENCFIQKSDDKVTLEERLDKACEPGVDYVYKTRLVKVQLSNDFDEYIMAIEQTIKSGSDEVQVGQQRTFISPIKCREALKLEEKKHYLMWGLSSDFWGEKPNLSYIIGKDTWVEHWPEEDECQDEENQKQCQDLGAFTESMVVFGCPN

Row | EC50 of hC3 cleavage | Binder
1 | 6.78 nM | B1
2 | 6.67 nM | B2
3 | 5.93 nM | B3
4 | 22.5 nM | B4
5 | 26.2 nM | B5
6 | 3.09 nM | B6
7 | 5.04 nM | B7
8 | 13.8 nM | B8
9 | 22 nM | B9
10 | 11.8 nM | B10
11 | 27.7 nM | B11
12 | 16.9 nM | B12
13 | 25.5 nM | B13
14 | 48.3 nM | B14
15 | 7.05 nM | B15
16 | 52.4 nM | B16
17 | 39.8 nM | B17
18 | 45.8 nM | B18
19 | 10.3 nM | B19
20 | 3.06 nM | B20
21 | 22.2 nM | B21
22 | 19.5 nM | B22
23 | 9.56 nM | B23
24 | 10.2 nM | B24
25 | 2.43 nM | B25
